Source: the supplement of paper PMC10126150
± gives the standard deviation of the averaged measurements.

System: ATP
Test: switch fluorescence ratio, 500 uM ATP over buffer (Cy3 cluster intensity, sum of 5 cycles each) (fold (ratio)); higher = stronger signal-on switching upon ATP binding; sequences stand for … in TCGTCGGCAGCGTCAGATGTGTATAAGAGACAGTTTTTTTTTTTTTTTTTTTTTTTTT…TC
Conditions: aptamer strand: ATP DNA aptamer (quencher-CACCTGGGGGAGTATTGCGGAGGAAGG + anchor), 100 nM annealed; ATP concentration: 500 uM
In short: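 For every switch-domain sequence, the fluorescence ratio is the mean of per-cluster values, each being summed target-cycle Cy3 intensity over summed buffer-cycle Cy3 intensity. Clusters outside 100-1000 RFU were excluded. On a modified Illumina MiSeq flow-cell, the Cy3-labelled switching-strand clusters were annealed to 100 nM quencher-labelled ATP aptamer, imaged in selection buffer and then after 15 min with 500 uM ATP at 22 °C. Five such cycles were run, with NaOH stripping and re-annealing between them.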
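Note: ATP exposure 15 min at 22 °C before imaging.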

| Sequence | switch fluorescence ratio |
| --- | --- |
| TATTTTTGCC | 1.001 ± 0.0031 |
| ATAGGCCTTG | 1.01 ± 0.031 |
| TGATGGGTAT | 1 ± 0.028 |
| CCGGCTTAGA | 1.14 ± 0.2 |
| GGAAGAATAG | 1.02 ± 0.038 |
| TTAATCAGGT | 1.01 ± 0.016 |
| CTGGAGGGAC | 1.06 ± 0.026 |
| TTAGGTGCAA | 1.17 ± 0.11 |
| ACATTCCAGT | 1.14 ± 0.15 |
| TCGACGGGAT | 2.42 ± 0.31 |
| GTTTGTAAGC | 1.03 ± 0.01 |
| CTAGTCGCCG | 1.003 ± 0.0097 |
| TCTCTGTGTT | 1.027 ± 0.0019 |
| AGGGATTAA | 0.99 ± 0.054 |
| TAGCTAGTAT | 1.63 ± 0.95 |
| GATAATAATT | 0.9969 ± 0.0091 |
| CGAGAAATGG | 1.07 ± 0.055 |
| ACTTATAATT | 1.02 ± 0.027 |
| TGAAAAATTG | 0.985 ± 0.053 |
| TGACATAGGA | 1.001 ± 0.0029 |
| GTACCCTCAA | 1.03 ± 0.024 |
| TGCAGTCTAG | 1.07 ± 0.15 |
| GGGGCTCATA | 0.9876 ± 0.0072 |
| AGGTAAACGT | 1.05 ± 0.083 |
| TCAGGAGTCG | 1.02 ± 0.06 |

| Sequence | switch fluorescence ratio |
| --- | --- |
| TGCAGGGCGT | 1.01 ± 0.031 |
| TCGGTGACGG | 1.01 ± 0.017 |
| TCAGACTGTT | 1.01 ± 0.013 |
| AAGTCAGTGC | 1.11 ± 0.013 |
| TTGGTAGCGG | 1.02 ± 0.034 |
| CTTGGAGTTT | 1 ± 0.034 |
| CATGTTAGGT | 1.01 ± 0.025 |
| TTATTAGTAT | 1.02 ± 0.016 |
| GGAGAGAAAG | 0.9866 ± 0.0024 |
| AGCTTTCGCG | 0.99 ± 0.03 |
| GTTGGGGAGT | 0.9776 ± 0.0062 |
| GAGGATGGCA | 0.9807 ± 0.0061 |
| AATGAAAGAT | 0.998 ± 0.039 |
| TGCGTTTCGA | 1.03 ± 0.025 |
| GGTATAATTA | 0.964 ± 0.024 |
| AAATACGTTT | 1 ± 0.016 |
| AAAAATGTCC | 1.07 ± 0.03 |
| GGACGCGTGG | 1.01 ± 0.018 |
| TGGGTGTCGT | 1.02 ± 0.081 |
| GGGGGGGTTA | 0.992 ± 0.025 |
| AGCTTTTCTT | 1.03 ± 0.017 |
| ATAAAGTTTC | 1.03 ± 0.015 |
| TACCTAGAAC | 1.07 ± 0.056 |
| AATGTCAGCT | 1.01 ± 0.021 |
| CCAGGCGATG | 1.05 ± 0.005 |

| Sequence | switch fluorescence ratio |
| --- | --- |
| TTGGGCGGAA | 1.03 ± 0.071 |
| AAGGGCGGGC | 1.07 ± 0.0085 |
| CCGATTGGTA | 1.027 ± 0.0057 |
| AGGTACGTGG | 0.996 ± 0.059 |
| ATGGAGGGTA | 0.99 ± 0.016 |
| ATTGGATCGG | 0.9956 ± 0.0095 |
| TTTTTTGCTA | 1.01 ± 0.026 |
| GCTTAATGTG | 0.968 ± 0.027 |
| TATTAGGCGC | 0.982 ± 0.022 |
| TTTTAAGCTA | 1.12 ± 0.2 |
| AATCCGCTCT | 1.2 ± 0.11 |
| AGCTTAAGGG | 0.967 ± 0.02 |
| GGGGTAGATA | 1.01 ± 0.012 |
| ACACATCGGA | 1.005 ± 0.0057 |
| TCGGACGGAA | 2.17 ± 0.21 |
| TTAGCGGGAT | 1.01 ± 0.044 |
| AGATGCCATG | 1.032 ± 0.0075 |
| AGTTAGTAGT | 0.981 ± 0.021 |
| TTGGTTAAGT | 1.01 ± 0.046 |
| GGTGGACTTA | 1.01 ± 0.03 |
| TTGAGGTGGC | 0.982 ± 0.018 |
| TAGGGGCGTG | 0.998 ± 0.039 |
| CGCCTAGTCG | 1.02 ± 0.074 |
| GTGGGGTTGG | 0.981 ± 0.021 |
| TCTTGCATGT | 1.02 ± 0.028 |

| Sequence | switch fluorescence ratio |
| --- | --- |
| GATAATTTCT | 0.9886 ± 0.0046 |
| TAATTCATCG | 0.97196 ± 0.00069 |
| ACAAGTATGT | 1.02 ± 0.041 |
| CGATGGTTTT | 1.01 ± 0.044 |
| AAGTGGTTA | 0.981 ± 0.026 |
| AATTAACGCG | 0.993 ± 0.023 |
| AGAGGGAATG | 0.975 ± 0.03 |
| CAAAATTTCG | 1.016 ± 0.0015 |
| GTCTGGGCTG | 0.986 ± 0.014 |
| GTCTAAGGGA | 0.968 ± 0.024 |
| CCAGCTGGGT | 1.0117 ± 0.0005 |
| TCGGGGGAAA | 0.994 ± 0.036 |
| AGGAAAAATA | 0.988 ± 0.053 |
| TGGCGGGGCT | 0.9972 ± 0.0064 |
| CGTGTTCTGG | 0.994 ± 0.031 |
| ATCTTGGGTT | 1.006 ± 0.0064 |
| GGGTGTCAGC | 1.02 ± 0.017 |
| ACTCTTGTAT | 1.045 ± 0.0058 |
| TGGTTGAGGG | 1.01 ± 0.013 |
| TAAGTCCCGG | 0.984 ± 0.05 |
| GGAGAGAGGG | 1.02 ± 0.044 |
| CCATGAACAT | 1 ± 0.028 |
| AATGGGTTCA | 1.021 ± 0.0062 |
| TTTGCTTTGT | 1.01 ± 0.023 |
| GGTTGAGGTC | 1 ± 0.023 |

| Sequence | switch fluorescence ratio |
| --- | --- |
| TAGGGCACA | 1.1 ± 0.057 |
| CTAAGGATGC | 1.03 ± 0.021 |
| GAAGGCATTC | 1.06 ± 0.031 |
| CGGGCATGCT | 1.04 ± 0.034 |
| TGGATCTTAT | 1.01 ± 0.034 |
| GTGAACATAT | 1.036 ± 0.0022 |
| GATCTTGCCT | 1.02 ± 0.026 |
| GCAAATGGTT | 1.01 ± 0.053 |
| CGTTTCGTGC | 0.9919 ± 0.003 |
| AGAGTTGTTA | 0.996 ± 0.013 |
| GGGGGCAAGC | 1.25 ± 0.35 |
| CGGGGTGCAC | 1.05 ± 0.023 |
| GCGCGTGGAG | 1.04 ± 0.03 |
| TTGGGAGGCT | 1 ± 0.044 |
| GTTGGGGTGC | 1.01 ± 0.028 |
| GCTGGGAGGA | 1.02 ± 0.04 |
| GAAGGTTTGT | 1.002 ± 0.01 |
| GGTTGGGCGG | 1.01 ± 0.026 |
| GCTTGTTACG | 0.98379 ± 0.00012 |
| ATCGTGGGGG | 1 ± 0.028 |
| ATTTTATGAC | 1.008 ± 0.0025 |
| GGGTTGTTCT | 0.9792 ± 0.0087 |
| AAAACCGTGT | 1.05 ± 0.04 |
| TTTTTTTCGT | 1.07 ± 0.21 |
| AATCGGTAAT | 1.027 ± 0.0081 |

| Sequence | switch fluorescence ratio |
| --- | --- |
| CTATAGTAGG | 0.9849 ± 0.0029 |
| AATGGTGATT | 1.02 ± 0.046 |
| GATTTTTTTT | 0.989 ± 0.029 |
| TTGGGGGTTC | 1.01 ± 0.05 |
| AGGGGGCCCG | 1.009 ± 0.005 |
| TTGAGTGTGG | 0.998 ± 0.03 |
| GCTTTTAGGA | 1 ± 0.038 |
| AGGTACCGTT | 1.033 ± 0.0017 |
| ATGTTTATTT | 0.998 ± 0.041 |
| TGTTGGTGTC | 0.987 ± 0.07 |
| ATGTCGTGTC | 1 ± 0.013 |
| ACCCCTTGAT | 1.04 ± 0.023 |
| CGAGTTTCGG | 1.011 ± 0.0073 |
| GTATGTAGTG | 0.966 ± 0.023 |
| AGGTTGTAGC | 0.998 ± 0.02 |
| TTTAGGTGTG | 1.02 ± 0.039 |
| CTTGCTGGTT | 0.999 ± 0.028 |
| AGGAGGCAGG | 1.03 ± 0.011 |
| GGAATAGGGT | 0.98 ± 0.052 |
| GACGATTCTT | 0.97989 ± 0.00092 |
| TATTTGTATG | 0.9919 ± 0.003 |
| AAGTTTTTTT | 1 ± 0.025 |
| ATGATGCAGA | 1.004 ± 0.008 |
| GGTATTAAGT | 1 ± 0.011 |
| GGTAGGGTGG | 1.02 ± 0.048 |

| Sequence | switch fluorescence ratio |
| --- | --- |
| TTTGGGCACT | 0.996 ± 0.024 |
| GAAAGATAAG | 0.985 ± 0.014 |
| AAGGGTTCAT | 1.031 ± 0.0099 |
| TTTGAATTGG | 0.996 ± 0.017 |
| GAGTACCGAA | 0.969 ± 0.031 |
| GTGAGTGGTG | 0.978 ± 0.015 |
| CAGTCTAAGT | 1.02 ± 0.014 |
| CGGCTTGTTG | 1.01 ± 0.017 |
| AGAGGGTTTT | 0.988 ± 0.031 |
| ACATTCTACG | 1.25 ± 0.017 |
| CGGATGCGTT | 0.981 ± 0.024 |
| TACGAGCCAC | 1.31 ± 0.032 |
| TTGTATTTA | 1.01 ± 0.05 |
| AGCTTTCTAT | 0.976 ± 0.011 |
| CGGGGGTGTG | 0.993 ± 0.035 |
| TTTTGGAGTA | 1.02 ± 0.047 |
| ATATGTGTTG | 0.992 ± 0.0066 |
| TCACAGTTAG | 0.998 ± 0.046 |
| TTTATACCGA | 1.067 ± 0.004 |
| CACTATGGGA | 1.02 ± 0.027 |
| TACGAGTCGT | 1.01 ± 0.022 |
| TATATCTATA | 1.02 ± 0.015 |
| TCTGGAAGGC | 1.29 ± 0.25 |
| TCAAAACGGT | 1.34 ± 0.51 |
| TGGGGTTGTT | 0.985 ± 0.033 |

| Sequence | switch fluorescence ratio |
| --- | --- |
| GGGGTTTTAG | 1.01 ± 0.018 |
| CAGGGGGATT | 1.03 ± 0.042 |
| TTGAGGGGA | 0.982 ± 0.021 |
| TCATAAGGGA | 0.997 ± 0.028 |
| GAGAGTAGAG | 0.992 ± 0.034 |
| ACGATAGTTA | 0.992 ± 0.01 |
| TTGATAGCCT | 1.06 ± 0.059 |
| TTAACACTCC | 1.2 ± 0.02 |
| GAAAAAAGGG | 1.11 ± 0.11 |
| GAGGGACCGT | 0.995 ± 0.025 |
| GAGTGGTTAG | 0.9884 ± 0.0017 |
| ACATGAATGG | 0.969 ± 0.016 |
| TCGGGGGCGG | 1.02 ± 0.078 |
| AATAGAGGGG | 0.9926 ± 0.0071 |
| TAAAAATGAC | 1.07 ± 0.1 |
| ATTGTTGCTG | 0.993 ± 0.061 |
| AGTCAGAAAT | 1 ± 0.022 |
| TTTATTTGTC | 0.992 ± 0.053 |
| GGGGAAGAAT | 0.9784 ± 0.0021 |
| GGGTCAGAAA | 1.04 ± 0.11 |
| GCGGGAGGTC | 1.03 ± 0.013 |
| AAAATTGGGG | 1.02 ± 0.039 |
| CATTATTAAA | 0.976 ± 0.025 |
| GGGGAGGACT | 1 ± 0.021 |
| GGGCAAGGGG | 1.02 ± 0.028 |
